Patent publication US20110171235A1 (University of California, published 2011)
Positions count from the first letter of the chain named. Like-named read-outs stand apart in the source and are kept apart here.

Legend:
[1] = biological target: T1, botulinum neurotoxin type A (BoNT/A), purified holotoxin (Clostridium botulinum, UniProt P0DPI0 2-1296); test: yeast displayed scFv, flow cytometry
[2] = biological target: T1, botulinum neurotoxin type A (BoNT/A), …
[3] = biological target: T1, botulinum neurotoxin type A (BoNT/A), …; test: yeast display
[4] = biological target: T1, botulinum neurotoxin type A (BoNT/A), …; test: Kinexa
[5] = biological target: T1, botulinum neurotoxin type A (BoNT/A), …; test: cell-based or functional assay
[6] = biological target: T1, botulinum neurotoxin type A (BoNT/A), …; remark: listed apart in the source
[7] = biological target: T1, botulinum neurotoxin type A (BoNT/A), …; remark: listed apart in the source

B1: AR4 scFv (scFv, V domains shown)
VH: QVQLQESGGGLVQPGGSLRLSCAASGFTFEEHYMYWVRQAPGKGLEWVATISDGGSYTYYPDSVEGRFTTSRDNSKNTLYLQMNSLRAEDTAIYYCSRYRYDDAMDYWGQGTLVTVSS
VL: EIVLTQSPATLSLSPGERATISCRASESVDSYGHSFMQWYQQKPGQAPRLLIYRASNLEPGIPARFSGSGSGTDFTLTISSLEPEDFAVYYCQQGNEVPFTFGQGTKVEIK
- Kd [1]: 0.023 nM
- Kd [2]: 0.0226 nM
- fold higher affinity than HuC25 scFv [3]: 37 fold

B2: AR2 scFv (scFv, V domains shown)
VH: B1 VH with E30S, E31D, E65K
VL: B1 VL
- Kd [1]: 0.0614 nM
- fold increase against parental AR1 [1]: 2.8 fold

B3: HuC25 scFv (scFv, V domains shown)
VH: B1 VH with E30S, E31D, H32Y, E65K, T70I, I93M
VL: B1 VL with G95S, V98D
- Kd [1]: 0.844 nM

B4: AR4 IgG (antibody, V domains shown)
VH: B1 VH
VL: EIVLTQSPATLSLSPGERATISCRASESVDSYGHSFMQWYQQKPGQAPRLLIYRASNLEPGIPARFSGSGSGTDFTLTISSLEPEDFAVYYCQQGNEVPFTFGQGTKVEIKR
- fold higher affinity than HuC25 IgG [4]: 34 fold

B5: AR1 scFv (scFv, V domains shown)
VH: B1 VH with E30S, E31D, H32Y, E65K, T70I
VL: B1 VL
- Kd [1]: 0.169 nM
- fold improvement of KD against HuC25 [1]: 5 fold

B6: AR3 scFv (scFv, V domains shown)
VH: B1 VH with E30G
VL: B1 VL
- Kd [1]: 0.019 nM

B7: C25 scFv (scFv)
scFv: QVQLQESGGGLVKPGGSLKLSCAASGFTFSDYYMYWVRQTPEKRLEWVATISDGGSYTYYPDSVKGRFTISRDNAKNNLYLQMSSLKSEDTAMYYCSRYRYDDAMDYWGQGTTVTVSSGGGGSGGGGSGGGGSDIELTQSPASLAVSLGQRATISCRASESVDSYGHSFMQWYQQKPGQPPKLLIYRASNLEPGIPARFSGSGSGTDFTLTINPVEADDVATYYCQQSNEDPFTFGSGTKLEIKR
- prolongation of time to neuroparalysis [5]: 2.7 fold

B8: 3D12 scFv (scFv, V domains shown)
VH: QVQLVQSGGGVVHPGRSLKLSCAGSGFTFSDYDMHWVRQAPGKGLEWVAVMWFDGTEKYSAESVKGRFTISRDNSKNTLFLQMNSLRADDTAVYYCAREPDWLLWGDRGALDVWGQGTTVTVSS
VL: DIVMTQSPSTLSASVGDRVTITCRASQSISSWLAWYQQKPGKAPKLLMYEASSLESGVPSRFSGSGSGTEFTLTISSLQPDDFAAYYCQHYNTYPYTFGQGTKLEIK
- Kd [6]: 0.943 nM
- prolongation of time to neuroparalysis [5]: 1.5 fold

B9: RAZ1 IgG (antibody, V domains shown)
VH: B8 VH
VL: DIVMTQSPSTLSASVGDRVTITCWASQSISSRLAWYQQKPGKAPKLLMYEATSLGSGVPSRFSGSGSGTEFTLTISSLQPDDFAAYYCQHYDTYPYTFGQGTKLEIKR
- fold higher affinity than 3D12 IgG [7]: 35 fold
